Results from US11633499B2, “Anti-TMEM-180 antibody, anticancer drug and cancer testing method” (NATIONAL CANCER CENTER JAPAN, priority 2016, dated 2023).
Substitutions are numbered along the chain they refer to. In names and notes the source's numbering stands.

B1: Variant 1: Fc-modified clone of 1361-5 with triple substitutions S239D/A330L/1332E in the Fc region (antibody)
heavy: EVQLVESGGGLVQPGRSLKLSCVASGFTFNNYWMTWIRQAPGKGLEWVASITNTGGSTAYPDSVKGRFTISRDYAKSTLYLQMNSLRSEDTATYYCTRAGYSSYPDYFDYWGQGVMLTVSSASTKGPSVFPLAPSSKSTSGGTAALGCLVKDYFPEPVTVSWNSGALTSGVHTFPAVLQSSGLYSLSSVVTVPSSSLGTQTYICNVNHKPSNTKVDKKVEPKSCDKTHTCPPCPAPELLGGPDVFLFPPKPKDTLMISRTPEVTCVVVDVSHEDPEVKFNWYVDGVEVHNAKTKPREEQYNSTYRVVSVLTVLHQDWLNGKEYKCKVSNKALPLPEEKTISKAKGQPREPQVYTLPPSRDELTKNQVSLTCLVKGFYPSDIAVEWESNGQPENNYKTTPPVLDSDGSFFLYSKLTVDKSRWQQGNVFSCSVMHEALHNHYTQKSLSLSPGK
light: MMAPVQLLGLLLLWLPAMRCNIQMTQSPSLLSASVGDRVTLSCKAGQNIYNYLAWYQQKLGEAPKLLIYNANSLQTGIPSRFSGSGSGTDFTLTISSLQPEDVATYFCQQYSSGWTFGGGTKLELKRTVAAPSVFIFPPSDEQLKSGTASVVCLLNNFYPREAKVQWKVDNALQSGNSQESVTEQDSKDSTYSLSSTLTLSKADYEKHKVYACEVTHQGLSSPVTKSFNRGEC
B2: Variant 2: Fc-modified clone of 1361-5 with triple substitutions S239D/1332E/E333A in the Fc region (antibody)
heavy: B1 heavy with L334A, E337A
light: B1 light

System: wild type DLD-1 cells
Assay: ADCC activity (51Cr release, TK176V effector cells), wild type DLD-1
Assay type: cell-based, human
Settings: ET ratio 40; 4 hours; 0.064 to 1,000 ng/mL; FIGS. 20A to 20D
Protocol: Specifically, TK176V (a natural killer cell line stably expressing FcγRIII) was used as an effector cell, which was obtained from Chemicals Evaluation and Research Institute, Japan. The wild type DLD-1 cell line was used as a target cell.
T1 76V was cultured in RPM11640 containing 10 ng/mL IL-2 and 10% FBS. For passages, the medium was diluted with a fresh medium every 2 to 3 days. In the passage, the cells were detached by a trypsin treatment and then suspended in a fresh medium to be plated on a dish every 2 to 3 days.
The measurement of the ADCC activity was performed as described below.
First, the amount of 51Cr release was measured when only the target cells were cultured in medium as a negative control, which is referred to as “Spontaneous release measurement”. The amount of 51 Cr release was measured when the all target cells were damaged by adding 0.1% TRITON™ (surfactant) X-100, which is referred to as “Max release measurement.”
1) Adding DLD-1 WT labelled with 50 μCi of ^51Cr to a U-bottom, 96 well plate at 5,000 cells/50 μL/well.
2) Adding TK176V at 200,000 cells/50 μL/well (ET ratio: 40): A medium was added at 50 μL/well to the well for Spontaneous release measurement and the well for Max release measurement. […]

Molecule | ADCC activity against wild type DLD-1 cells
B1 | equal to or stronger than that of the 1361-5 antibody
B2 | equal to or stronger than that of the 1361-5 antibody
